Test results as given in patent US20230136228A1 (LAMKAP BIO ALPHA, published 2023).
Residue numbers refer to the chain shown, from its start. Names and notes keep the numbering of the source.

T1: human CEACAM1 (human, UniProt P13688 35-526)
T1 construct: whole, on cells
T1 sequence (looked up): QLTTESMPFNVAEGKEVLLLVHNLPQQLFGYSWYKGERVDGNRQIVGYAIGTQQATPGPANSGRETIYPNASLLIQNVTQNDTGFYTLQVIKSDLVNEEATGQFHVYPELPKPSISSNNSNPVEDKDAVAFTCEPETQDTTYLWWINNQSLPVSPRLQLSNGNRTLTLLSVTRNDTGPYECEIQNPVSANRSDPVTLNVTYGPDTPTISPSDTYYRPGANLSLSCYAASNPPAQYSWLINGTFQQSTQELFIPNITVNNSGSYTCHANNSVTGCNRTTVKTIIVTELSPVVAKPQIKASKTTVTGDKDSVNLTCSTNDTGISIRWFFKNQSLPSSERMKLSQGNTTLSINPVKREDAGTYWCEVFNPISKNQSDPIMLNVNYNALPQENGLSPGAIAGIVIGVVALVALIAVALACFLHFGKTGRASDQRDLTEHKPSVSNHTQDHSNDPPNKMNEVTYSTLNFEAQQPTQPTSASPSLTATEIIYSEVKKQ

T2: human CEACAM8 (human, UniProt P31997 35-320)
T2 construct: whole, on cells
T2 sequence (looked up): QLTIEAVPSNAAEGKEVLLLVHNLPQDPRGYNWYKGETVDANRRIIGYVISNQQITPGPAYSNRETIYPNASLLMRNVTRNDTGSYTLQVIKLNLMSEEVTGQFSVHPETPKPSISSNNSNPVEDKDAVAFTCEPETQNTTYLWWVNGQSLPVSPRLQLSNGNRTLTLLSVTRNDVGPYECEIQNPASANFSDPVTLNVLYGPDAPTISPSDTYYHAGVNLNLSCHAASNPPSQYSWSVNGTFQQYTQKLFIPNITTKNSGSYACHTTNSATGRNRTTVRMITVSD

T3: human CEACAM3 (human, UniProt P40198 35-252)
T3 construct: whole, on cells
T3 sequence (looked up): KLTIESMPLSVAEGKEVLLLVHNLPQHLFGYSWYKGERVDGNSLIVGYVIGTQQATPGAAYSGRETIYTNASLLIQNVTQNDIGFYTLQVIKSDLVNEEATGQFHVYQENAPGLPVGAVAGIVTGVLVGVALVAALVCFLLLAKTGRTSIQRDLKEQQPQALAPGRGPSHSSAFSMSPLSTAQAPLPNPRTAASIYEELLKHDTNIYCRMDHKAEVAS

T4: human CEACAM4 (human, UniProt O75871 36-244)
T4 construct: whole, on cells
T4 sequence (looked up): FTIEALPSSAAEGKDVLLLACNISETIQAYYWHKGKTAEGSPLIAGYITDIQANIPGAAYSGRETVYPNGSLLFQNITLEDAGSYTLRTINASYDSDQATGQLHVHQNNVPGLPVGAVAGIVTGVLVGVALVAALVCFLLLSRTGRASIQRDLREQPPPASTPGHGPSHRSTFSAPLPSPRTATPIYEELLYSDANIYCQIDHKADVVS

B1: AB17L3-1/N (bispecific antibody, human IgG1, kappa, lambda, L234A L235A)
heavy: EVQLVESGGGLVQPGGSLKLSCAASGFTFNTYAMNWVRQAPGKGLEWVGRIRSKYNNYATYYADSVKDRFTISRDDSKNTAYLQMNSLKTEDTAVYYCVRHGNFGNSYVSWFAYWGQGTLVTVSSASTKGPSVFPLAPSSKSTSGGTAALGCLVKDYFPEPVTVSWNSGALTSGVHTFPAVLQSSGLYSLSSVVTVPSSSLGTQTYICNVNHKPSNTKVDKRVEPKSCDKTHTCPPCPAPEAAGGPSVFLFPPKPKDTLMISRTPEVTCVVVDVSHEDPEVKFNWYVDGVEVHNAKTKPREEQYNSTYRVVSVLTVLHQDWLNGKEYKCKVSNKALAAPIEKTISKAKGQPREPQVYTLPPSREEMTKNQVSLTCLVKGFYPSDIAVEWESNGQPENNYKTTPPVLDSDGSFFLYSKLTVDKSRWQQGNVFSCSVMHEALHNHYTQKSLSLSPG
light 1: EIVLTQSPATLSLSPGERATLSCRASQSVNSNLNWYQQKPGQAPRLLIYHGSNRATGIPARFSGSGSGTDFTLTISSLEPEDFAVYYCQQFDYFKEHNTFGQGTKVEIKRTVAAPSVFIFPPSDEQLKSGTASVVCLLNNFYPREAKVQWKVDNALQSGNSQESVTEQDSKDSTYSLSSTLTLSKADYEKHKVYACEVTHQGLSSPVTKSFNRGEC
light 2: QTVVTQEPSLTVSPGGTVTLTCRSSTGAVTTSNYANWFQQKPGQAPRGLIGGTNKRAPGTPARFSGSLLGGKAALTLSGAQPEDEAEYYCALWYKQRWVFGGGTKLTVLGQPKAAPSVTLFPPSSEELQANKATLVCLISDFYPGAVTVAWKADSSPVKAGVETTTPSKQSNNKYAASSYLSLTPEQWKSHRSYSCQVTHEGSTVEKTVAPTECS
notes: Kappa-lambda body, lead optimization wave 1
B2: AB1L3-1/N (bispecific antibody, human IgG1, kappa, lambda, L234A L235A)
heavy: B1 heavy
light 1: B1 light 1 with Y93L, F94R, K95H
light 2: B1 light 2
notes: Kappa-lambda body: common heavy chain (hIgG1 L234A+L235A+P329A), kappa CEA light chain AB1, lambda CD3 light chain L3-1 (1A4); also called parental KL bispecific antibody
B3: AB71L3-1/N (bispecific antibody, human IgG1, kappa, lambda, L234A L235A)
heavy: B1 heavy
light 1: B1 light 1 with G51S, A55P, T56H
light 2: B1 light 2
notes: Kappa-lambda body, lead optimization wave 2
B4: AB73L3-1/N (bispecific antibody, human IgG1, kappa, lambda, L234A L235A)
heavy: B1 heavy
light 1: B1 light 1 with G51S, S52N, A55P, T56H, K95R, H97Y
light 2: B1 light 2
notes: as for B3
B5: AB72L3-1/N (bispecific antibody, human IgG1, kappa, lambda, L234A L235A)
heavy: B1 heavy
light 1: B1 light 1 with G51S, S52T, A55P, T56R, H97Y
light 2: B1 light 2
notes: as for B3

biological target: T1, human CEACAM1; assay: flow cytometry, MFI on transfected PEAK cells divided by MFI on WT PEAK cells
Protocol: (§1) Similarly, vectors encoding the full-length version of cyno CEACAM 5 and 6 are also used to express these proteins at the surface of PEAK and/or CHO cells. Non-transfected PEAK and/or CHO cells are used as negative control. Cells are harvested, counted, checked for viability and resuspended at 3×10⁶ cells/ml in FACS buffer (PBS 2% BSA, 0.1% NaN₃). 100 μl of the cell suspension are distributed in V-bottom 96-well plates (3×10⁵ cells/well). The supernatant is removed by centrifugation 3 minutes at 4° C., 1300 rpm and the cells incubated for 15 minutes at 4° C. with increasing concentrations of the antibody according to the invention. The antibodies carrying the anti-CEACAM5 arms to test are diluted in FACS buffer and the concentration range is 30 pM-500 nM. Cells are washed twice with cold FACS buffer and re-incubated for further 15 minutes at 4° C. with a compatible anti-human IgG secondary antibody. Cells are washed twice with cold FACS buffer and resuspended in 300 μl FACS buffer with 1:1500-diluted TOPRO-3 (Invitrogen). Fluorescence is measured using a FACSCalibur™ (BD Biosciences) or a Cytoflex Platform (Beckman Coulter). Dose-response binding curves are fitted using GraphPad Prism8 software. In the same manner, CEACAM1, CEACAM6 and other CEACAMs can be characterized.
(§2) For the bispecific antibodies AB17L3-1/N, AB71L3-1/N, AB72L3-1/N, AB73L3-1/N the MFI measured for binding to CEACAM5 transfected cells was found between 29000 and 41000 (Table 2). In contrast MFI found by using PEAK cells transfected with CEACAM 1,3,4,6,8 were found below 1000 with the only exception of a strong signal for AB72L3-1/N on CEACAM8 transfected cells. When MFI values obtained on transfected cells expressing any given CEACAM are divided by the values obtained on WT PEAK cells, “factors to PEAK WT” can be calculated (Table 3). With the exception of AB72L3-1/N, the antibodies of the invention are all specific to CEACAM5, as the “factor to PEAK WT” values are all below 2.0.

Binder | Factor to PEAK WT
B1 | 1.2 fold
B2 | 1 fold
B3 | 1 fold
B4 | 1.1 fold
B5 | 1.4 fold

biological target: T2, human CEACAM8; assay: as above
Protocol: as §1, §2

Binder | Factor to PEAK WT
B1 | 0.8 fold
B2 | 0.7 fold
B3 | 0.9 fold
B4 | 0.8 fold
B5 | 13.1 fold

biological target: T3, human CEACAM3; assay: as above
Protocol: as §1, §2

Binder | Factor to PEAK WT
B1 | 1.2 fold
B2 | 0.8 fold
B3 | 0.8 fold
B4 | 0.9 fold
B5 | 1 fold

biological target: T4, human CEACAM4; assay: as above
Protocol: as §1, §2

Binder | Factor to PEAK WT
B1 | 0.8 fold
B2 | 0.7 fold
B3 | 0.7 fold
B4 | 0.7 fold
B5 | 0.8 fold
